Read-outs that look alike come from different tables or passages of the source. One block for each molecule: values may come before it.
Columns and labels:
[1] = biological target: soluble porcine αβ-tubulin (porcine) (UniProt P02550); assay: SEC + SEC-MALS
[2] = biological target: soluble porcine αβ-tubulin (porcine) (UniProt P02550); assay: ITC
[3] = biological target: αβ-tubulin:DRP complex (1:1 molar ratio) (porcine) (UniProt P02550); assay: ITC
[4] = biological target: αβ-tubulin:DRP complex (1:1 molar ratio) (porcine) (UniProt P02550); assay: ITC; remark: listed apart in the source
[5] = biological target: soluble porcine αβ-tubulin (porcine) (UniProt P02550); assay: SEC + SEC-MALS; remark: listed apart in the source

stoichiometry N [1]: 1 | Kd [2]: 149 nM
Molecule: designer ankyrin repeat protein, Darpin-D1 (DRP) (designed binder)

Kd [2]: 461 nM
Molecule: DRP with the N-terminal ankyrin repeat removed (DRPΔN) (designed binder)

Kd [3]: 70 nM | Kd [4]: 1500 nM
B1: isolated TOG1 (residues 1-270) (domain or fragment)
chain: MSQDQEEDYSKLPLESRIVHKVWKVRLSAYEECSKSFSLSADGSDNCFELWNNQSELWKSVLTDSNVAAQEAGTAAFVAYCRFSDPSHLLKAREISVLSISEKCLTSPRAGTRENALEALMLLVEADSAAPVIESIIPSLSARSPKVIASNVAAIASLVEQFGAKVIPSKMIIPHISNLFGHADKNVRKEASRLTVNIYRWTGDPLKDLLFKDLRPVQTKELESLFAELPTEPPKQTRFLKSQQPTSEPNVETQVEEQPALENEESEPEP

Kd [3]: 173 nM | Kd [4]: 3250 nM
B2: isolated TOG2 (residues 320-510) (domain or fragment)
chain: KDNDFFNLVAILTKSVSKDANIMVVINAAHCIQAMAKGLRSNFSKYASTSINALLERSKEKKANVIESLSSAMDAVLATSSLDDLAELIASFAGNKNPQIKSSCFSLFSRSFSNMTSLPSKFTVDTCAKACVPGVSDTFEPVRSAAAEALGVLMKLVGERAINQYLSPLDDIRKSKIRSFYETATVKAKAP

stoichiometry N [5]: 4 | stoichiometry N [1]: 4
B3: dimeric S. pombe Alp14 TOG array (residues 1-690) (domain or fragment)
chain: MSQDQEEDYSKLPLESRIVHKVWKVRLSAYEECSKSFSLSADGSDNCFELWNNQSELWKSVLTDSNVAAQEAGTAAFVAYCRFSDPSHLLKAREISVLSISEKCLTSPRAGTRENALEALMLLVEADSAAPVIESIIPSLSARSPKVIASNVAAIASLVEQFGAKVIPSKMIIPHISNLFGHADKNVRKEASRLTVNIYRWTGDPLKDLLFKDLRPVQTKELESLFAELPTEPPKQTRFLKSQQPTSEPNVETQVEEQPALENEESEPEPSDDQFDLVEEVDVLPNVDPNLETLMASSKWKDRKEALDKLLPVLSQPKIKDNDFFNLVAILTKSVSKDANIMVVINAAHCIQAMAKGLRSNFSKYASTSINALLERSKEKKANVIESLSSAMDAVLATSSLDDLAELIASFAGNKNPQIKSSCFSLFSRSFSNMTSLPSKFTVDTCAKACVPGVSDTFEPVRSAAAEALGVLMKLVGERAINQYLSPLDDIRKSKIRSFYETATVKAKAPTKKSKVKPSKQEESKVVVPSNAKAVKKSVVPSSPVVPSPRKATNKSLSMDVSKGNAFENGPLLPRPTTRPVSRGLSRGTSSSLQQKVKASTPLNSGALNETVQNLKNMELDDPAPQPAKHSRVDRYEHPKVLEDNDSTISSLESLKRENEELREQLKVEHEENISMQKQLSELKGELNTL

stoichiometry N [5]: 2 | stoichiometry N [1]: 2
B4: monomeric S. pombe Alp14 TOG1-TOG2 array (residues 1-510) (domain or fragment)
chain: MSQDQEEDYSKLPLESRIVHKVWKVRLSAYEECSKSFSLSADGSDNCFELWNNQSELWKSVLTDSNVAAQEAGTAAFVAYCRFSDPSHLLKAREISVLSISEKCLTSPRAGTRENALEALMLLVEADSAAPVIESIIPSLSARSPKVIASNVAAIASLVEQFGAKVIPSKMIIPHISNLFGHADKNVRKEASRLTVNIYRWTGDPLKDLLFKDLRPVQTKELESLFAELPTEPPKQTRFLKSQQPTSEPNVETQVEEQPALENEESEPEPSDDQFDLVEEVDVLPNVDPNLETLMASSKWKDRKEALDKLLPVLSQPKIKDNDFFNLVAILTKSVSKDANIMVVINAAHCIQAMAKGLRSNFSKYASTSINALLERSKEKKANVIESLSSAMDAVLATSSLDDLAELIASFAGNKNPQIKSSCFSLFSRSFSNMTSLPSKFTVDTCAKACVPGVSDTFEPVRSAAAEALGVLMKLVGERAINQYLSPLDDIRKSKIRSFYETATVKAKAP

Source: publication doi:10.1101/340026
